Measured values: patent US20240117030A1 (Pfizer, published 2024)
Residue numbers refer to the chain shown, from its start.

T1: human IL-4 (human, UniProt P05112 25-153)
T1 sequence (looked up): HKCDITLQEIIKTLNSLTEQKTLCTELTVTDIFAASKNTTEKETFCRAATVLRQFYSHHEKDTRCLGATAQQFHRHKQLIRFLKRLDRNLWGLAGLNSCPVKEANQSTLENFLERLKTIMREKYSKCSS

T2: recombinant human IL-33 (human, UniProt O95760 112-270, limits assumed)
T2 sequence (looked up): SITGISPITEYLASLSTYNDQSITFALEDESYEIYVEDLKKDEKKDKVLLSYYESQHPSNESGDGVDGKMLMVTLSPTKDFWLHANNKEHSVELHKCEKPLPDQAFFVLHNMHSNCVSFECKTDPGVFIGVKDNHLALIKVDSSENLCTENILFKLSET

T3: recombinant human IL-4 (human, UniProt P05112 25-153)
T3 sequence (looked up): T1 sequence (looked up)

B1: IL413TSLP-0248 (other)
heavy: EVQLVESGGGLVQPGGSLRLSCAASGFTFSSYAMSWVRQAPGKGLEWVASISSGDTTYYPDSVKGRFTISRDNAKNSLYLQMNSLRAEDTAVYYCARNEGYYFGLTLWGQGTLVTVSSASTKGPSVFPKAPSSKSTSGGTAALGCLVKDYFPEPVTVSWNSGALTSGVHTFPAVLQSSGLYSLSSSVTVPSSSLGTQTYICNVNHKPSNTKVDKKVEPKSCDKTHTCPPCPAPEAAGAPSVFLFPPKPKDTLMISRTPEVTCVVVDVSHEDPEVKFNWYVDGVEVHNAKTKPREEQYNSTYRVVSVLTVLHQDWLNGKEYKCKVSNKALPAPIEKTISKAKGQPREPQVCTLPPSREEMTKNQVSLWCLVKGFYPSDIAVEWESNGQPENNYKTTPPVLDSDGSFFLYSKLTVDKSRWQQGNVFSCSVMHEALHNHYTQKSLSLSPGK
chain 1: SYVLTQPPSVSVAPGQTARITCGGNNLGSKSVHWYQQKPGQAPVLVVYDDSDRPSWIPERFSGSNSGNTATLTISRGEAGDEADYYCQVWDSSSDHVVFGGGTKLTVLGQPKAAPSVTLFPPSSEELQANKATLVCLISDFYPGAVTVAWKADSSPVKAGVETTTPSKQSNNKYAASSYLSLTPEQWKSHRSYSCQVTHEGSTVEKTVAPTECSGGGGSEVTLRESGPALVKPTQTLTLTCTFSGFSLSNFGEGLSWIRQPPGKGLEWLAHIYWDDDKRYNPSLKSRLTISKDTSRNQVVLTMTNMDPVDTATYYCARRETVFYWYFDVWGQGTTVTVSSASTKGPSVFPEAPSSKSTSGGTAALGCLVKDYFPEPVTVSWNSGALTSGVHTFPAVLQSSGLYSLGSVVTVPSSSLGTQTYICNVNHKPSNTKVDKKVEPKSCDKTHTCPPCPAPEAAGAPSVFLFPPKPKDTLMISRTPEVTCVVVDVSHEDPEVKFNWYVDGVEVHNAKTKPREEQYNSTYRVVSVLTVLHQDWLNGKEYKCKVSNKALPAPIEKTISKAKGQPREPQVYTLPPCREEMTKNQVSLSCAVKGFYPSDIAVEWESNGQPENNYKTTPPVLDSDGSFFLVSKLTVDKSRWQQGNVFSCSVMHEALHNHYTQKSLSLSPGK
light 1: DIQMTQSPSSLSASVGDRVTITCKASESVDHFGWSLVHWYQQKPGKAPKLLIYRASNLESGVPSRFSGSGSGTDFTLTISSLQPEDFATYYCQQSNEDPWTFGGGTKVEIKRTVAAPSVFIFPPSDEQLKSGTASVSCLLNNFYPREAKVQWKVDNALQSGNSQESVTEQDSKDSTYSLDSTLTLSKADYEKHKVYACEVTHQGLSSPVTKSFNRGEC
light 2: B1 light 1 with E27Q, H31E, F32D, W34D, L36Y, V37M, H38N, R54A, W100P, D180K
chain 2: not shown
B2: IL413TSLP-0250 (other)
heavy: EVTLRESGPALVKPTQTLTLTCTFSGFSLSNFGEGLSWIRQPPGKGLEWLAHIYWDDDKRYNPSLKSRLTISKDTSRNQVVLTMTNMDPVDTATYYCARRETVFYWYFDVWGQGTTVTVSSASTKGPSVFPEAPSSKSTSGGTAALGCLVKDYFPEPVTVSWNSGALTSGVHTFPAVLQSSGLYSLGSVVTVPSSSLGTQTYICNVNHKPSNTKVDKKVEPKSCDKTHTCPPCPAPEAAGAPSVFLFPPKPKDTLMISRTPEVTCVVVDVSHEDPEVKFNWYVDGVEVHNAKTKPREEQYNSTYRVVSVLTVLHQDWLNGKEYKCKVSNKALPAPIEKTISKAKGQPREPQVYTLPPCREEMTKNQVSLSCAVKGFYPSDIAVEWESNGQPENNYKTTPPVLDSDGSFFLVSKLTVDKSRWQQGNVFSCSVMHEALHNHYTQKSLSLSPGK
chain 1: SYVLTQPPSVSVAPGQTARITCGGNNLGSKSVHWYQQKPGQAPVLVVYDDSDRPSWIPERFSGSNSGNTATLTISRGEAGDEADYYCQVWDSSSDHVVFGGGTKLTVLGQPKAAPSVTLFPPSSEELQANKATLVCLISDFYPGAVTVAWKADSSPVKAGVETTTPSKQSNNKYAASSYLSLTPEQWKSHRSYSCQVTHEGSTVEKTVAPTECSGGGGSEVQLVESGGGLVQPGGSLRLSCAASGFTFSSYAMSWVRQAPGKGLEWVASISSGDTTYYPDSVKGRFTISRDNAKNSLYLQMNSLRAEDTAVYYCARNEGYYFGLTLWGQGTLVTVSSASTKGPSVFPKAPSSKSTSGGTAALGCLVKDYFPEPVTVSWNSGALTSGVHTFPAVLQSSGLYSLSSSVTVPSSSLGTQTYICNVNHKPSNTKVDKKVEPKSCDKTHTCPPCPAPEAAGAPSVFLFPPKPKDTLMISRTPEVTCVVVDVSHEDPEVKFNWYVDGVEVHNAKTKPREEQYNSTYRVVSVLTVLHQDWLNGKEYKCKVSNKALPAPIEKTISKAKGQPREPQVCTLPPSREEMTKNQVSLWCLVKGFYPSDIAVEWESNGQPENNYKTTPPVLDSDGSFFLYSKLTVDKSRWQQGNVFSCSVMHEALHNHYTQKSLSLSPGK
light 1: B1 light 1 with E27Q, H31E, F32D, W34D, L36Y, V37M, H38N, R54A, W100P, D180K
light 2: B1 light 1
chain 2: not shown
B3: IL13433-0006 (other)
heavy: B1 heavy
chain 1: DIQMTQSPSSLSASVGDRVTITCKASQNINKHLDWYQQKPGKAPKLLIYFTNNLQTGVPSRFSGSGSGTDFTLTISSLQPEDFATYYCFQYNQGWTFGGGTKVEIKRTVAAPSVFIFPPSDEQLKSGTASVVCLLNNFYPREAKVQWKVDNALQSGNSQESVTEQDSKDSTYSLSSTLTLSKADYEKHKVYACEVTHQGLSSPVTKSFNRGECGGGGSEVTLRESGPALVKPTQTLTLTCTFSGFSLSNFGEGLSWIRQPPGKGLEWLAHIYWDDDKRYNPSLKSRLTISKDTSRNQVVLTMTNMDPVDTATYYCARRETVFYWYFDVWGQGTTVTVSSASTKGPSVFPEAPSSKSTSGGTAALGCLVKDYFPEPVTVSWNSGALTSGVHTFPAVLQSSGLYSLGSVVTVPSSSLGTQTYICNVNHKPSNTKVDKKVEPKSCDKTHTCPPCPAPEAAGAPSVFLFPPKPKDTLMISRTPEVTCVVVDVSHEDPEVKFNWYVDGVEVHNAKTKPREEQYNSTYRVVSVLTVLHQDWLNGKEYKCKVSNKALPAPIEKTISKAKGQPREPQVYTLPPCREEMTKNQVSLSCAVKGFYPSDIAVEWESNGQPENNYKTTPPVLDSDGSFFLVSKLTVDKSRWQQGNVFSCSVMHEALHNHYTQKSLSLSPGK
light 1: B1 light 1
light 2: B1 light 1 with E27Q, H31E, F32D, W34D, L36Y, V37M, H38N, R54A, W100P, D180K
chain 2: EVQLVESGGGLVQPGGSLRLSCAASGFTFSSYWMYWVRQAPGKGLEWVAAITPNAGEDYYPESVKGRFTISRDNAKNSLYLQMNSLRAEDTAVYYCARGHYYYTSYSLGYWGQGTLVTVSSASTKGPSVFPLAPSSKSTSGGTAALGCLVKDYFPEPVTVSWNSGALTSGVHTFPAVLQSSGLYSLSSVVTVPSSSLGTQTYICNVNHKPSNTKVDKKVEPKSC

Key:
Assay in all cases: cell-based or functional assay
human IL-4 = target: T1, human IL-4
human IL-13 = human IL-13 (human, UniProt P35225 35-146)
recombinant human IL-13 = recombinant human IL-13 (human, UniProt P35225 35-146)
recombinant human IL-33 = target: T2, recombinant human IL-33
recombinant human IL-4 = target: T3, recombinant human IL-4

Sequence of human IL-13 (P35225 35-146 limits assumed): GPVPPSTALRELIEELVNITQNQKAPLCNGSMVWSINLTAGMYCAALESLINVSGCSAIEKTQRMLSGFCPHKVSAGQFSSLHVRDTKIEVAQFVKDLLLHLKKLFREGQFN
Sequence of recombinant human IL-13 (P35225 35-146 limits assumed): as above

Row | Binder | a-hIL-4 bioassay IC50, pM) (human IL-4) [pM] | a-hIL-13 bioassay (IC50, pM) (human IL-13) [pM] | IL-13 Induced CD23 Expression, potency of cytokine neutralization (recombinant human IL-13) [nM] | IL-33 WT Activation of SEAP Reporter Cells, potency of cytokine neutralization (recombinant human IL-33) [nM] | IL-4 Induced CD23 Expression, potency of cytokine neutralization (recombinant human IL-4) [nM]
1 | B1 | 5.11 | 15.6 |  |  | 
2 | B2 | 3.68 | 102 |  |  | 
3 | B3 |  |  | 0.00901 | 0.112 | 0.0103
